Where two headings read alike, the source gives them in different places. Blank lines part the entries; values can stand above or below the binder they belong to.
Tests used:
human antithrombin [1] = target: T1, human antithrombin (human, UniProt P01008 33-464); experiment: cell-based or functional assay
human antithrombin [2] = target: T1, human antithrombin; experiment: cell-based or functional assay; remark: listed apart in the source
rabbit antithrombin = target: T2, rabbit antithrombin (rabbit); experiment: ELISA, sdAb coated, plasma 1/4, bound antithrombin probed with polyclonal anti-antithrombin
T2 construct: Native protein in plasma diluted 1/4; also called rabbit AT; antithrombin in rabbit plasma
Protocol: (§1) sdAbs KB-AT-001, -002. -003, -004, -005, -006, and -007 were immobilized (10 microgram/ml) in 10 mM NaHCO₃, 50 mM Na2CO3 (pH 9.5) in a volume of 50 microliter in half-well microtiter plates (Greiner Bio-One, Les Ulis, France) for 16 h at 4° C. As a positive control, polyclonal anti-antithrombin antibodies (MATIII-EIA kit, Affinity biologicals, Ancaster Canada) were immobilized in a similar fashion. As a negative control, the anti-von Willebrand sdAb KB-VWF-006 was immobilized. After washing the wells three times with 100 microliter/well using Tris-buffered saline (pH 7.6) supplemented with 0.1% Tween-20 (TBS-T), wells were blocked with 100 microliter/well of TBS-T supplemented with 3% bovine serum albumin (BSA) for 30 min at 37° C. Wells were washed as described above, and subsequently the following plasma preparations (diluted ¼ in TBS-T/3% BSA, 100 microliter per well, 2 hours at 37° C.) were added to each of the immobilized sdAbs and both types of control wells: rabbit plasma, canine plasma, simian plasma, bovine plasma, porcine plasma, rat plasma, murine plasma and human plasma.
(§2) Wells were then washed three times with 100 microliter/well using TBS-T. Bound antithrombin was probed with peroxidase-labeled polyclonal anti-antithrombin antibodies (MATIII-EIA kit, Affinity biologicals, Ancaster Canada; diluted 1/100) for 2 hours at 37° C. with 50 microliter per well. Wells were then washed three times with 100 microliter/well using TBS-T. Residual peroxidase activity was detected by measuring peroxidase-mediated hydrolysis of 3,3′,5,5′-tetramethylbenzidine.
(§3) Negative binding (−) was defined as optical density (OD) being ≤0.1, moderate positive binding (+) was defined as OD being >0.1 and <0.5, strongly positive binding (++) was defined as OD being ≥0.5. […] All plasma preparations had moderate or strongly positive binding to the positive control (polyclonal anti-antithrombin antibodies).

bovine antithrombin = target: T3, bovine antithrombin (bovine, UniProt P41361 33-465); experiment: as above
T3 construct: Native protein in plasma diluted 1/4; also called bovine AT; antithrombin in bovine plasma
T3 sequence (P41361 33-465): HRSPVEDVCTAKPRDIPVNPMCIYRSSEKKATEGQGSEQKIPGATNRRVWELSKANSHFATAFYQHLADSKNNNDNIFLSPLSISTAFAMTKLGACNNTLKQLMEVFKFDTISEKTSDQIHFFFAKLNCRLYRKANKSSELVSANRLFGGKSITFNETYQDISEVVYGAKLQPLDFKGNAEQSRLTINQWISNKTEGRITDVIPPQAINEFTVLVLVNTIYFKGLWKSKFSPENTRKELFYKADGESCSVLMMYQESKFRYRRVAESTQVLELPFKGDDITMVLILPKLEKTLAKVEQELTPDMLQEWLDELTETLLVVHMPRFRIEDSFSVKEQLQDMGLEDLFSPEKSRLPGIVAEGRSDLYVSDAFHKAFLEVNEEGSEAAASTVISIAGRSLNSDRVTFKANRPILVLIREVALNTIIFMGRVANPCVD
Protocol: as §1, §2, §3

porcine antithrombin = target: T4, porcine antithrombin (porcine); experiment: as above
T4 construct: Native protein in plasma diluted 1/4; also called porcine AT; antithrombin in porcine plasma
Protocol: as §1, §2, §3

canine antithrombin = target: T5, canine antithrombin (canine); experiment: ELISA, sdAb coated, plasma 1/4, bound antithrombin probed with polyclonal anti-antithrombin; grade by OD
T5 construct: Native protein in plasma diluted 1/4; also called canine AT; antithrombin in canine plasma
Protocol: as §1, §2, §3

rat antithrombin = target: T6, rat antithrombin (rat, UniProt Q8VHJ4); experiment: as above
T6 construct: Native protein in plasma diluted 1/4; also called rat AT; antithrombin in rat plasma
Protocol: as §1, §2, §3

murine antithrombin = target: T7, murine antithrombin (mouse, UniProt P32261 33-465); experiment: as above
T7 construct: also called mouse antithrombin; murine AT
T7 sequence (P32261 33-465 limits assumed): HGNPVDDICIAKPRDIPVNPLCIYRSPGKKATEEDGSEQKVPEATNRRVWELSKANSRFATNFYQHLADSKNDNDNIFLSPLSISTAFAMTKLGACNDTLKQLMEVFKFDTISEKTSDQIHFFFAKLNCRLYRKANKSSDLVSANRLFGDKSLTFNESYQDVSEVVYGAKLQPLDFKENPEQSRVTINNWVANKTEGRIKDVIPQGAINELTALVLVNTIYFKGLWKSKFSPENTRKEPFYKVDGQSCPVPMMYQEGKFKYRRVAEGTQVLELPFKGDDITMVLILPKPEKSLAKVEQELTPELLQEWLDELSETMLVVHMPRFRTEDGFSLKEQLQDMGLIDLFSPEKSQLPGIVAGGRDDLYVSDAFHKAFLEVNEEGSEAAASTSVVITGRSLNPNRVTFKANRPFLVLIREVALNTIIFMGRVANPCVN
Protocol: as §1, §2, §3

simian antithrombin = target: T8, simian antithrombin (simian); experiment: as above
T8 construct: Native protein in plasma diluted 1/4; also called simian AT; antithrombin in simian plasma
Protocol: as §1, §2, §3

human antithrombin [3] = target: T1, human antithrombin; experiment: as above
Protocol: as §1, §2, §3

human antithrombin [4] = target: T1, human antithrombin; experiment: BLI (Octet-QK), sdAb coupled to sensor, antithrombin 12.5-50 ug/ml; apparent KD
Protocol: The interaction between sdAbs KB-AT-001, KB-AT-002, KB-AT-003 and KB-AT-006 versus human antithrombin was further analyzed via biolayer-interferometry analysis using Octet-QK equipment in order to determine apparent dissociation constants (KD,app). To this end, sdAbs KB-AT-001, KB-AT-002, KB-AT-003 and KB-AT-006 were diluted in 0.1 M Mes (pH 5.0) to a concentration of 200 microgram/ml for coupling to EDC/NHS-activated amine-reactive biosensors (Fort6bio, Menlo Park, Calif., USA). Sensors were rehydrated in 0.2 ml 0.1 M MES, pH 5.0 for 300 sec. Sensors were then activated via incubation with 0.1 ml 0.2 M EDC/0.095 M NHS mixture for 300 sec and subsequently incubated with 0.1 ml sdAb-solution for 600 sec. […] Following this association phase, sensors were transferred to wells containing PBS-T and incubated for 900 sec, allowing dissociation of the antithrombin-sdAb complex. Obtained data were subsequently analyzed using Octet-QK data analysis software (Origin vs 4) to estimate KD,app.

human antithrombin [5] = target: T1, human antithrombin; experiment: cell-based or functional assay; remark: listed apart in the source
human antithrombin [6] = target: T1, human antithrombin; experiment: cell-based or functional assay; remark: listed apart in the source
human antithrombin [7] = target: T1, human antithrombin; experiment: cell-based or functional assay; remark: listed apart in the source

T1 sequence (P01008 33-464 limits assumed): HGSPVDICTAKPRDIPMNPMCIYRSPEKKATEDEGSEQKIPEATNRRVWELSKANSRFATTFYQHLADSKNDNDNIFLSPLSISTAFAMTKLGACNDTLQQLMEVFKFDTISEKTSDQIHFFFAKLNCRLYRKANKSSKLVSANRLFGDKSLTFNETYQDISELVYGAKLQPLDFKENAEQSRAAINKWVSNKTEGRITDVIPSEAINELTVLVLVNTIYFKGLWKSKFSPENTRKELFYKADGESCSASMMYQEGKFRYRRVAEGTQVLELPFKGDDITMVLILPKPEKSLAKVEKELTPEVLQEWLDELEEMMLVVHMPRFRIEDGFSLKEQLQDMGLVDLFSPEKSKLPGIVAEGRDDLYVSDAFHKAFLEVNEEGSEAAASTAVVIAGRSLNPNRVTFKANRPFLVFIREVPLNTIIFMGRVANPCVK

percentage of neutralization of antithrombin-mediated factor Xa inhibition, with LMW-heparin (human antithrombin [1]): < 15%
percentage of neutralization of antithrombin-mediated thrombin inhibition, with unfractionated heparin (human antithrombin [1]): < 5%
% antithrombin neutralization (thrombin amidolytic activity on S-2238, no heparin) (human antithrombin [2]): 67%
OD (rabbit antithrombin): ≤ 0.1 od
OD (bovine antithrombin): ≤ 0.1 od
OD (porcine antithrombin): ≤ 0.1 od
OD (canine antithrombin): 0.1 to 0.5 od
OD (rat antithrombin): 0.1 to 0.5 od
OD (murine antithrombin): ≥ 0.5 od
OD (simian antithrombin): ≥ 0.5 od
OD (human antithrombin [3]): ≥ 0.5 od
Kd (human antithrombin [4]): 400 pM
B1: KB-AT-003 (VHH)
VHH: QVQLVQSGGGLVQPGGSLRLSCAASALTFSSRAWAWYRQAPGKQRELVASITGGGTTNYADSVKGRFTISRDNAKNTVYLQMNSLKPEDTAVHYCNGYRYTYAWGQGTQVTVSS
notes: Monovalent anti-antithrombin single-domain antibody; also called sdAb KB-AT-003

% antithrombin neutralization (thrombin amidolytic activity on S-2238, with unfractionated heparin) (human antithrombin [5]): 99%
B2: KB-AT-1123 (bispecific antibody)
chain: QVQLQESGGGLVQAGGSLRLSCAASGRTFRNYVMGWFRQAPGKDPEFIAGINRSGAITYYGDSVKGRFTISRDNAKNTVSLQMNSLEPEDTAVYYCAAGETTWSIRRDDYDYWGQGTQVTVSSGGGSGGGSGGGSGGGSQVQLQESGGGLVQAGGSLRLSCAASGRTFRNYVMGWFRQAPGKDPEFIAGINRSGAITYYGDSVKGRFTISRDNAKNTVSLQMNSLEPEDTAVYYCAAGETTWSIRRDDYDYWGQGTQVTVSSGGGSGGGSGGGSGGGSQVQLVQSGGGLVQAGGSLRLSCAASGRTFNNNGMGWFRQAPGKEREFVAAISWSGGSTYYADSVKGRYIMSRDNAKNTVYLQMNSLKPEDTAVYYCAARTRYNSGLFSRNYDYWGQGTQVTVSSGGGSGGGSGGGSGGGSQVQLQESGGGLVQPGGSLRLSCAASALTFSSRAWAWYRQAPGKQRELVASITGGGTTNYADSVKGRFTISRDNAKNTVYLQMNSLKPEDTAVHYCNGYRYTYAWGQGTQVTQVTVSS

% antithrombin neutralization (thrombin amidolytic activity on S-2238, with unfractionated heparin) (human antithrombin [5]): 29%
B3: KB-AT-112 (bispecific antibody)
chain: QVQLQESGGGLVQAGGSLRLSCAASGRTFRNYVMGWFRQAPGKDPEFIAGINRSGAITYYGDSVKGRFTISRDNAKNTVSLQMNSLEPEDTAVYYCAAGETTWSIRRDDYDYWGQGTQVTVSSGGGSGGGSGGGSGGGSQVQLQESGGGLVQAGGSLRLSCAASGRTFRNYVMGWFRQAPGKDPEFIAGINRSGAITYYGDSVKGRFTISRDNAKNTVSLQMNSLEPEDTAVYYCAAGETTWSIRRDDYDYWGQGTQVTVSSGGGSGGGSGGGSGGGSQVQLVQSGGGLVQAGGSLRLSCAASGRTFNNNGMGWFRQAPGKEREFVAAISWSGGSTYYADSVKGRYIMSRDNAKNTVYLQMNSLKPEDTAVYYCAARTRYNSGLFSRNYDYWGQGTQVTVSS

% antithrombin neutralization (thrombin amidolytic activity on S-2238, with unfractionated heparin) (human antithrombin [5]): 97%
B4: KB-AT-113 (bispecific antibody)
chain: QVQLQESGGGLVQAGGSLRLSCAASGRTFRNYVMGWFRQAPGKDPEFIAGINRSGAITYYGDSVKGRFTISRDNAKNTVSLQMNSLEPEDTAVYYCAAGETTWSIRRDDYDYWGQGTQVTVSSGGGSGGGSGGGSGGGSQVQLQESGGGLVQAGGSLRLSCAASGRTFRNYVMGWFRQAPGKDPEFIAGINRSGAITYYGDSVKGRFTISRDNAKNTVSLQMNSLEPEDTAVYYCAAGETTWSIRRDDYDYWGQGTQVTVSSGGGSGGGSGGGSGGGSQVQLQESGGGLVQPGGSLRLSCAASALTFSSRAWAWYRQAPGKQRELVASITGGGTTNYADSVKGRFTISRDNAKNTVYLQMNSLKPEDTAVHYCNGYRYTYAWGQGTQVTQVTVSS

% antithrombin neutralization (factor Xa amidolytic activity on S-2765, with LMW-heparin) (human antithrombin [6]): 62%
% antithrombin neutralization (thrombin amidolytic activity on S-2238, with unfractionated heparin) (human antithrombin [7]): 56%
B5: KB-AT-001/003 (bispecific antibody)
chain: QVQLQESGGGLVQAGGSLRLSCAASGRTFRNYVMGWFRQAPGKDPEFIAGINRSGAITYYGDSVKGRFTISRDNAKNTVSLQMNSLEPEDTAVYYCAAGETTWSIRRDDYDYWGQGTQVTVSSGGGSGGGSGGGSGGGSQVQLQESGGGLVQPGGSLRLSCAASALTFSSRAWAWYRQAPGKQRELVASITGGGTTNYADSVKGRFTISRDNAKNTVYLQMNSLKPEDTAVHYCNGYRYTYAWGQGTQVTQVTVSS

% antithrombin neutralization (factor Xa amidolytic activity on S-2765, with LMW-heparin) (human antithrombin [6]): 68%
% antithrombin neutralization (thrombin amidolytic activity on S-2238, with unfractionated heparin) (human antithrombin [7]): 47%
B6: KB-AT-002/003 (bispecific antibody)
chain: QVQLQESGGGLVQAGGSLRLSCAASGRTFNNNGMGWFRQAPGKEREFVAAISWSGGSTYYADSVKGRYIMSRDNAKNTVYLQMNSLKPEDTAVYYCAARTRYNSGLFSRNYDYWGQGTQVTVSSGGGSGGGSGGGSGGGSQVQLQESGGGLVQPGGSLRLSCAASALTFSSRAWAWYRQAPGKQRELVASITGGGTTNYADSVKGRFTISRDNAKNTVYLQMNSLKPEDTAVHYCNGYRYTYAWGQGTQVTVSS

% antithrombin neutralization (factor Xa amidolytic activity on S-2765, with LMW-heparin) (human antithrombin [6]): 34%
% antithrombin neutralization (thrombin amidolytic activity on S-2238, with unfractionated heparin) (human antithrombin [7]): 28%
B7: KB-AT-001/005 (other)
chain: QVQLQESGGGLVQAGGSLRLSCAASGRTFRNYVMGWFRQAPGKDPEFIAGINRSGAITYYGDSVKGRFTISRDNAKNTVSLQMNSLEPEDTAVYYCAAGETTWSIRRDDYDYWGQGTQVTVSSGGGSGGGSGGGSGGGSEVQLVESGGGLVQPGGSLRLSCEASGRDFNDAALGWSRQVPGKARETVAMITSGGVRNYAETVKDRFTISRDNAKNTVYLDMNNLQPDDTGVYYCKADSFKGDYDTSWYLYWGQGTQVTVSS

% antithrombin neutralization (factor Xa amidolytic activity on S-2765, with LMW-heparin) (human antithrombin [6]): 57%
% antithrombin neutralization (thrombin amidolytic activity on S-2238, with unfractionated heparin) (human antithrombin [7]): 30%
B8: KB-AT-001/002 (bispecific antibody)
chain: QVQLQESGGGLVQAGGSLRLSCAASGRTFRNYVMGWFRQAPGKDPEFIAGINRSGAITYYGDSVKGRFTISRDNAKNTVSLQMNSLEPEDTAVYYCAAGETTWSIRRDDYDYWGQGTQVTVSSGGGSGGGSGGGSGGGSQVQLVQSGGGLVQAGGSLRLSCAASGRTFNNNGMGWFRQAPGKEREFVAAISWSGGSTYYADSVKGRYIMSRDNAKNTVYLQMNSLKPEDTAVYYCAARTRYNSGLFSRNYDYWGQGTQVTVSS

% antithrombin neutralization (thrombin amidolytic activity on S-2238, with unfractionated heparin) (human antithrombin [5]): 26%
B9: KB-AT-115 (other)
chain: QVQLQESGGGLVQAGGSLRLSCAASGRTFRNYVMGWFRQAPGKDPEFIAGINRSGAITYYGDSVKGRFTISRDNAKNTVSLQMNSLEPEDTAVYYCAAGETTWSIRRDDYDYWGQGTQVTVSSGGGSGGGSGGGSGGGSQVQLQESGGGLVQAGGSLRLSCAASGRTFRNYVMGWFRQAPGKDPEFIAGINRSGAITYYGDSVKGRFTISRDNAKNTVSLQMNSLEPEDTAVYYCAAGETTWSIRRDDYDYWGQGTQVTVSSGGGSGGGSGGGSGGGSEVQLVESGGGLVQPGGSLRLSCEASGRDFNDAALGWSRQVPGKARETVAMITSGGVRNYAETVKDRFTISRDNAKNTVYLDMNNLQPDDTGVYYCKADSFKGDYDTSWYLYWGQGTQVTVSS

— patent US20190100602A1 (INSERM INSTITUT NATIONAL DE LA SANT ET DE LA RECHERCHE M …, published 2019)
